Test results taken from patent US10494415B2, “Insulin-like growth factor 2 (IGF2) binding agents” (Cancer Research Technology Limited, priority 2015, dated 2019).
Substitutions are numbered along the chain they refer to. In names and notes the source's numbering stands. Each block holds one molecule with its values, some of them ahead of it.

Molecular target: IGF2 (Homo sapiens, UniProt P01344)
Assay: SPR (Biacore T200) of recombinant IGF2R domain 11 mutants on immobilised biotinylated IGF2
Type: binding
Parameters: purchased GroPep
Conditions: for off rate / koff (figure legend) / on rate / kon (figure legend): FIG. 2, 3
From the text: Surface plasmon resonance (SPR) binding analysis of recombinant M6P/IGF2R domain 11 mutants interaction with IGF2. Kon indicates association (on) rate; koff, dissociation (off) rate; RU, response units. Binding to IGF2 assessed with BIAcore T200 using purified biotinylated IGF2 and IGF1 on a streptavidin biosensor chip. Recombinant proteins were expressed either in E. coli and/or P. pastoris. All the mutants in the FG and CD loops are on the domain 11^AB5 background for the AB loop unless otherwise stated. All experiments were carried out at 25° C. in HBS-EP buffer (pH 7.4), were repeated 2-5 times on two independent BIAcore chips. nd=not determined. Data for KD expressed as mean of each experiment, and means of kon and koff are shown.
Measurements were carried out at 25° C. in HBS-EP buffer (pH 7.4) (nd=not determined, np=no protein). Data for KD expressed as mean of each experiment, and means of kon and koff are shown.
Measurements were carried out at 25° C. in MES-EP buffer, 20 mM MES pH 6.5, 150 mM NaCl, 3 mM EDTA, and 0.005% (v/v) surfactant P20). Data for KD expressed as mean of each experiment, and means of kon and koff are shown.
Final kinetic analysis of mutants by SPR was conducted using a Biacore T200 biosensor at 25° C. in either HBS-EP (10 mM HEPES pH 7.4, 150 mM NaCl, 3 mM EDTA, and 0.005% (v/v) surfactant P20) or MES-EP (20 mM MES pH 6.5, 150 mM NaCl, 3 mM EDTA, and 0.005% (v/v) surfactant P20) at a flow-rate of 40 μL min^−1. […] For the analysis of the Fc-domain 11^AB5 interaction, approximately 50 RU of a biotinylated IGF2:biotinylated ubiquitin mixture (1:8 proportion) was immobilized on the CM5-streptavidin chip. This interaction was also analysed by immobilizing the Fc-domain 11^AB5 and Fc-domain 11^AB5-RHH (or Fc-domain 11^I1572A as control) by Human Antibody Capture (monoclonal mouse anti-human IgG antibody immobilised on a CM5 chip by amine coupling, GE Healthcare) with and without human IgG1 Fc fragment (Bethyl Laboratories, UK) in the control flow cell. Increasing concentrations of IGF2^1-67, proIGF2^1-104, proIGF2^1-156 and IGF1 ranging from 0.125 to 32 nM were injected. T200 BiaEvaluation software (GE Healthcare) was used to fit the resulting curves according to a 1:1 binding model. Steady state affinities were determined using the kinetic data, taking the response average at 5 seconds before injection end and for 5 seconds average. Thermodynamic data was performed across the temperature range of 10° C. to 30° C., van't Hoff and Erying plots generated and ΔH, −TΔS and ΔG values determined as previously described.

Chain of IGF2 (P01344 25-91): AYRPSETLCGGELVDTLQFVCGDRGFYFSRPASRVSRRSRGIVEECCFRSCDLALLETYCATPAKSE

B2: S1602H: domain 11 AB5 background + FG loop S1602H (protein)
chain: MKSNEHDDCQVTNPSTGHLFDLSSLSGRAGFTAAYAKGWGVYMSICGENENCPPGVGACFGQTRISVGKANKRLRYVDQVLQLVYKDGSPCPSKHGLSYKSVISFVCRPEAGPTNRPMLISLDKQTCTLFFSWHTPLACEQATECSV
Kinetics koff (Table 1, 25° C., HBS-EP pH 7.4): 0.0112 s⁻¹
Kinetics kon (Table 1, 25° C., HBS-EP pH 7.4): 3.61e+06 M⁻¹ s⁻¹

B4: P1599V: domain 11 FG loop mutant P1599V, AB5 background unless otherwise stated (protein)
chain: B2 chain with P92V, H95S
Kinetics koff (Table 1, 25° C., HBS-EP pH 7.4): >0.1 s⁻¹

B5: L1604A: domain 11 AB5 background + FG loop L1604A (protein)
chain: B2 chain with H95S, L97A
Kinetics koff (Table 1, 25° C., HBS-EP pH 7.4): 0.0397 s⁻¹
Kinetics kon (Table 1, 25° C., HBS-EP pH 7.4): 790000 M⁻¹ s⁻¹

B9: G1603A: domain 11 AB5 background + FG loop G1603A (protein)
chain: B2 chain with H95S, G96A
Kinetics koff (Table 1, 25° C., HBS-EP pH 7.4): 0.0183 s⁻¹
Kinetics kon (Table 1, 25° C., HBS-EP pH 7.4): 2.14e+06 M⁻¹ s⁻¹

B10: S1602A: domain 11 AB5 background + FG loop S1602A (protein)
chain: B2 chain with H95A
Kinetics koff (Table 1, 25° C., HBS-EP pH 7.4): 0.0250 s⁻¹
Kinetics kon (Table 1, 25° C., HBS-EP pH 7.4): 1.57e+06 M⁻¹ s⁻¹

B11: K1601A: domain 11 AB5 background + FG loop K1601A (protein)
chain: B2 chain with K94A, H95S
Kinetics koff (Table 1, 25° C., HBS-EP pH 7.4): 0.0220 s⁻¹
Kinetics kon (Table 1, 25° C., HBS-EP pH 7.4): 3.26e+06 M⁻¹ s⁻¹

B14: S1602Q: domain 11 AB5 background + FG loop S1602Q (protein)
chain: B2 chain with H95Q
Kinetics koff (Table 1, 25° C., HBS-EP pH 7.4): 0.0191 s⁻¹
Kinetics kon (Table 1, 25° C., HBS-EP pH 7.4): 5.88e+06 M⁻¹ s⁻¹

B15: S1602N: domain 11 AB5 background + FG loop S1602N (protein)
chain: B2 chain with H95N
Kinetics koff (Table 1, 25° C., HBS-EP pH 7.4): 0.0112 s⁻¹
Kinetics kon (Table 1, 25° C., HBS-EP pH 7.4): 2.38e+06 M⁻¹ s⁻¹

B16: K1601R: domain 11 AB5 background + FG loop K1601R (protein)
chain: B2 chain with K94R, H95S
Kinetics koff (Table 1, 25° C., HBS-EP pH 7.4): 0.0251 s⁻¹
Kinetics kon (Table 1, 25° C., HBS-EP pH 7.4): 5.28e+06 M⁻¹ s⁻¹

B17: S1600V: domain 11 AB5 background + FG loop S1600V (protein)
chain: B2 chain with S93V, H95S
Kinetics koff (Table 1, 25° C., HBS-EP pH 7.4): >0.2 s⁻¹

B18: S1600N: domain 11 AB5 background + FG loop S1600N (protein)
chain: B2 chain with S93N, H95S
Kinetics koff (Table 1, 25° C., HBS-EP pH 7.4): 0.0910 s⁻¹
Kinetics kon (Table 1, 25° C., HBS-EP pH 7.4): 3.95e+06 M⁻¹ s⁻¹

B19: S1600A: domain 11 AB5 background + FG loop S1600A (protein)
chain: B2 chain with S93A, H95S
Kinetics koff (Table 1, 25° C., HBS-EP pH 7.4): 0.2126 s⁻¹
Kinetics kon (Table 1, 25° C., HBS-EP pH 7.4): 2.39e+06 M⁻¹ s⁻¹

B20: S1600L: domain 11 AB5 background + FG loop S1600L (protein)
chain: B2 chain with S93L, H95S
Kinetics koff (Table 1, 25° C., HBS-EP pH 7.4): >0.2 s⁻¹

B21: S1600Y: domain 11 AB5 background + FG loop S1600Y (protein)
chain: B2 chain with S93Y, H95S
Kinetics koff (Table 1, 25° C., HBS-EP pH 7.4): >0.2 s⁻¹

B22: P1599G: domain 11 FG loop mutant P1599G, AB5 background unless otherwise stated (protein)
chain: B2 chain with P92G, H95S
Kinetics koff (Table 1, 25° C., HBS-EP pH 7.4): >0.2 s⁻¹

B23: K1631E: domain 11 HI loop mutant K1631E, probably AB5 background (protein)
chain: B2 chain with H95S, K124E
Kinetics koff (Table 1, 25° C., HBS-EP pH 7.4): >0.1 s⁻¹

B24: G1603K: domain 11 AB5 background + FG loop G1603K (protein)
chain: B2 chain with H95S, G96K
Kinetics koff (Table 1, 25° C., HBS-EP pH 7.4): 0.0121 s⁻¹
Kinetics kon (Table 1, 25° C., HBS-EP pH 7.4): 4.66e+06 M⁻¹ s⁻¹

B26: P1599A: domain 11 FG loop mutant P1599A, AB5 background unless otherwise stated (protein)
chain: B2 chain with P92A, H95S
Kinetics koff (Table 1, 25° C., HBS-EP pH 7.4): >0.1 s⁻¹

The remaining lines, values ahead:

Kinetics koff (Table 1, 25° C., HBS-EP pH 7.4): 0.0034 s⁻¹
Kinetics kon (Table 1, 25° C., HBS-EP pH 7.4): 1.18e+06 M⁻¹ s⁻¹
Kd (pH 7.4): 3.23 nM
B1: K1631W: domain 11 HI loop mutant K1631W, probably AB5 background (protein)
chain: B2 chain with H95S, K124W

Kinetics koff (Table 1, 25° C., HBS-EP pH 7.4): 0.0212 s⁻¹
Kinetics kon (Table 1, 25° C., HBS-EP pH 7.4): 1.96e+06 M⁻¹ s⁻¹
B3: Q1632K: domain 11 HI loop mutant Q1632K, probably AB5 background (protein)
chain: B2 chain with H95S, Q125K

Kinetics koff (Table 1, 25° C., HBS-EP pH 7.4): 0.0167 s⁻¹
Kinetics kon (Table 1, 25° C., HBS-EP pH 7.4): 4.5e+06 M⁻¹ s⁻¹
B6: Q1632A: domain 11 HI loop mutant Q1632A, probably AB5 background (protein)
chain: B2 chain with H95S, Q125A

off rate / koff (figure legend): 0.0038 s⁻¹
on rate / kon (figure legend): 5.9e+06 M⁻¹ s⁻¹
Kinetics koff (Table 3, 25° C., HBS-EP pH 7.4): 0.0038 s⁻¹
Kinetics kon (Table 3, 25° C., HBS-EP pH 7.4): 5.9e+06 M⁻¹ s⁻¹
Kinetics koff (Table 4, MES-EP pH 6.5): 0.0030 s⁻¹
Kinetics kon (Table 4, MES-EP pH 6.5): 4.41e+06 M⁻¹ s⁻¹
B7: AB5 Q1569R P1597H S1602H: domain 11 AB5 + Q1569R, P1597H, S1602H (AB5-RHH) (protein)
chain: B2 chain with Q62R, P90H

off rate / koff (figure legend): 0.0108 s⁻¹
on rate / kon (figure legend): 1.75e+07 M⁻¹ s⁻¹
Kinetics koff (Table 3, 25° C., HBS-EP pH 7.4): 0.0108 s⁻¹
Kinetics kon (Table 3, 25° C., HBS-EP pH 7.4): 1.75e+07 M⁻¹ s⁻¹
Kinetics koff (Table 4, MES-EP pH 6.5): 0.0087 s⁻¹
Kinetics kon (Table 4, MES-EP pH 6.5): 2.43e+07 M⁻¹ s⁻¹
B8: AB3 Q1569R P1597H S1602H G1603K: domain 11 AB3 + Q1569R, P1597H, S1602H, G1603K (protein)
chain: B2 chain with A36S, G38S, W39G, G40V, Q62R, P90H, G96K

Kinetics koff (Table 1, 25° C., HBS-EP pH 7.4): 0.0175 s⁻¹
Kinetics kon (Table 1, 25° C., HBS-EP pH 7.4): 3.18e+06 M⁻¹ s⁻¹
B12: Q1632L: domain 11 HI loop mutant Q1632L, probably AB5 background (protein)
chain: B2 chain with H95S, Q125L

Kinetics koff (Table 1, 25° C., HBS-EP pH 7.4): 0.0867 s⁻¹
Kinetics kon (Table 1, 25° C., HBS-EP pH 7.4): 7.18e+06 M⁻¹ s⁻¹
B13: K1631R: domain 11 HI loop mutant K1631R, probably AB5 background (protein)
chain: B2 chain with H95S, K124R

Kinetics koff (Table 1, 25° C., HBS-EP pH 7.4): 0.0202 s⁻¹
Kinetics kon (Table 1, 25° C., HBS-EP pH 7.4): 520000 M⁻¹ s⁻¹
B25: Q1632E: domain 11 HI loop mutant Q1632E, probably AB5 background (protein)
chain: B2 chain with H95S, Q125E
